# Assay results taken from patent US12281340B2, “Method of producing N-acyl-amino group-containing compound” (AJINOMOTO CO., INC., priority 2018, dated 2025).
# Tests used:
# Assay type in all cases: biochemical
# [1] = Synthesis of N-acylamino acids from various fatty acids using purified acylamino acid synthetase, UPLC-MS detection; parameters: key: +: Detected; −: Not detected
# How it was run: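 Purified enzyme (200 μg/mL) with 5 mM amino acid, 5 mM sodium fatty acid (3 mM palmitate or stearate, plus 10% methanol), 10 mM ATP, 10 mM MgCl2, 1 mM DTT in 50 mM Tris-HCl pH 8.0, shaken 24 h at 25 °C. Amino acid varied by enzyme; product mass detected by UPLC-MS (ESI-negative).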
# [2] = Quantification of produced N-acylamino acid (UV 210 nm) using purified acylamino acid synthetase; conditions: 5 mM L-Asp, 5 mM sodium fatty acid, 200 μg/mL enzyme, 25° C., 24 hours
# Protocol: 0.1 mL of a reaction solution containing 50 mM Tris-HCl, 5 mM amino acid, 5 mM sodium fatty acid, 10 mM ATP, 10 mM MgCl2, 1 mM DTT, 200 μg/mL of the purified enzyme, pH 8.0 was incubated at 25° C. for 24 hours. As amino acids, L-Asp was used in AtGH3-6, OsGH3-8, AtGH3-5, AtGH3-12, and Gly or L-Ala was used in CfHP. After completion of the reaction, 0.4 mL of the reaction stop solution (1% (v/v) phosphoric acid, 75% (v/v) methanol) was added, and the mixture was filtrated through the filter followed by being subjected to the UPLC-MS analysis to quantify the produced N-acylamino acid by detection at UV 210 nm. The condition for the UPLC-MS analysis is as descried in Example 2. As a result of the analysis, 3.9 mM of Nα-capryloyl-L-aspartic acid, 4.5 mM of Nα-caprinoyl-L-aspartic acid and 2.2 mM of Nα-lauroyl-L-aspartic acid were detected when AtGH3-6 was used; 4.3 mM of Nα-capryloyl-L-aspartic acid, 4.6 mM of Nα-caprinoyl-L-aspartic acid and 3.5 mM of Nα-lauroyl-L-aspartic acid were detected when OsGH3-8 was used; 4.1 mM of Nα-capryloyl-L-aspartic acid, 4.6 mM of Nα-caprinoyl-L-aspartic acid and 2.5 mM of Nα-lauroyl-L-aspartic acid were detected when AtGH3-5 was used; 1.6 mM of Nα-capryloyl-L-aspartic acid, 0.6 mM of Nα-caprinoyl-L-aspartic acid and 0.2 mM of Nα-lauroyl-L-aspartic acid were detected when AtGH3-12 was used; 4.5 mM of Nα-capryloylglycine, 4.6 mM of Nα-caprinoylglycine, 0.1 mM of Nα-lauroylglycine, 3.1 mM of Nα-capryloyl-L-alanine, 3.6 mM of Nα-caprinoyl-L-alanine and 0.4 mM of Nα-lauroyl-L-alanine were detected when CfHP was used.
# [3] = Synthesis of N-lauroylamino acid / N-lauroylamino acid derivative using purified acylamino acid synthetase, UPLC-MS detection; parameters: key: +: Detected; −: Not detected; conditions: +ATP
# Protocol: 0.2 mL of a reaction solution containing 50 mM Tris-HCl, 5 mM amino acid or D-amino acid derivative, 5 mM sodium laurate, 10 mM ATP, 10 mM MgCl2, 1 mM DTT, 200 μg/mL of the purified enzyme, pH 8.0 was incubated at 25° C. for 24 hours. After completion of the reaction, 0.8 mL of the reaction stop solution (1% (v/v) phosphoric acid, 75% (v/v) methanol) was added, and the mixture was filtrated through the filter followed by being subjected to the UPLC-MS analysis to detect a signal of a molecular weight corresponding to an N-lauroyl-amino acid or an N-lauroyl-amino acid derivative. The condition for the UPLC-MS analysis is as described in Example 2.
# As a result of the UPLC-MS analysis, the signal of the molecular weight corresponding to the N-lauroyl-amino acid or the N-lauroyl-amino acid derivative was confirmed in the reaction solution containing the enzyme in combination with the amino acid or the amino acid derivative shown in Table 5 below.
# [4] = Synthesis of N-caprinoyl-amino acid derivative, N-caprinoyl-D-amino acid and N-caprinoyl-peptide using purified acylamino acid synthetase, UPLC-MS detection; parameters: key: +: Detected; −: Not detected; conditions: +ATP
# How it was run: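 Purified enzyme (50 μg/mL) was incubated with 5 mM sodium caprate, 5 mM amino acid derivative, D-amino acid or peptide, 10 mM ATP, 10 mM MgCl2 and 1 mM DTT in 50 mM Tris-HCl, pH 8.0, for 24 h at 25 °C. After acidic methanol stop, UPLC-MS looked for the mass of the N-caprinoyl product.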
molecule,measurement,setting,value
"AtGH3-6: indole-3-acetic acid-amido synthetase GH3.6 from Arabidopsis thaliana, expressed in E. coli with N-terminal His-tag (protein, listed as Arabidopsis thaliana, N-terminal His-tag, indole-3-acetic acid-amido synthetase GH3.6 from Arabidopsis thaliana, expressed in E. coli with N-terminal His-tag) MPEAPKIAALEVSDESLAEKNKNKLQFIEDVTTNADDVQRRVLEEILSRNADVEYLKRHGLEGRTDRETFKHIMPVVTYEDIQPEINRIANGDKSQVLCSNPISEFLTSSGTSGGERKLMPTIEEELDRRSLLYSLLMPVMDQFVPGLDKGKGMYFLFIKSESKTPGGLPARPVLTSYYKSSHFKNRPYDPYTNYTSPNQTILCSDSYQSMYSQMLCGLCQHKEVLRVGAVFASGFIRAIKFLEKHWPELARDIRTGTLSSEITDSSVREAVGEILKPDPKLADFVESECRKTSWQGIITRLWPNTKYVDVIVTGTMSQYIPTLDYYSNGLPLVCTMYASSECYFGVNLRPLCKPSEVSYTLIPNMAYFEFLPVHRNSGVTSSISLPKALTEKEQQELVDLVDVKLGQEYELVVTTYAGLYRYRVGDVLSVAGFKNNAPQFSFICRKNVVLSIDSDKTDEVELQNAVKNAVTHLVPFDASLSEYTSYADTSSIPGHYVLFWELCLNGNTPIPPSVFEDCCLTIEESLNSVYRQGRVSDKSIGPLEIKMVESGTFDKLMDYAISLGASINQYKTPRCVKFAPIIELLNSRVVDSYFSPKCPKWSPGHKQWGSN",signal of molecular weight corresponding to N-acylamino acid,[1]; substrates L-Asp and Capric acid,+
same,signal of molecular weight corresponding to N-acylamino acid,[1]; substrates L-Asp and Caproic acid,+
same,signal of molecular weight corresponding to N-acylamino acid,[1]; substrates L-Asp and Caprylic acid,+
same,signal of molecular weight corresponding to N-acylamino acid,[1]; substrates L-Asp and Lauric acid,+
same,signal of molecular weight corresponding to N-acylamino acid,[1]; substrates L-Asp and Linoleic acid,−
same,signal of molecular weight corresponding to N-acylamino acid,[1]; substrates L-Asp and Palmitic acid,+
same,signal of molecular weight corresponding to N-acylamino acid,[1]; substrates L-Asp and myristic acid,+
same,Nα-caprinoyl-L-aspartic acid detected,[2],4.5 mM
same,Nα-capryloyl-L-aspartic acid detected,[2],3.9 mM
same,Nα-lauroyl-L-aspartic acid detected,[2],2.2 mM
same,signal of molecular weight corresponding to N-lauroyl amino acid,[3]; substrates Gly and sodium laurate,+
same,signal of molecular weight corresponding to N-lauroyl amino acid,[3]; substrates L-Ala and sodium laurate,+
same,signal of molecular weight corresponding to N-lauroyl amino acid,[3]; substrates L-Arg and sodium laurate,+
same,signal of molecular weight corresponding to N-lauroyl amino acid,[3]; substrates L-Asp and sodium laurate,+
same,signal of molecular weight corresponding to N-lauroyl amino acid,[3]; substrates L-Glu and sodium laurate,+
same,signal of molecular weight corresponding to N-lauroyl amino acid,[3]; substrates L-Lys and sodium laurate,+
same,signal of molecular weight corresponding to N-lauroyl amino acid,[3]; substrates L-Thr and sodium laurate,+
same,signal of molecular weight corresponding to N-lauroyl amino acid,[3]; substrates β-Ala and sodium laurate,+
same,signal of molecular weight corresponding to N-caprinoyl compound,[4]; substrates Carnosine and sodium caprate,+
same,signal of molecular weight corresponding to N-caprinoyl compound,[4]; substrates D-Ala and sodium caprate,+
same,signal of molecular weight corresponding to N-caprinoyl compound,[4]; substrates D-Asp and sodium caprate,+
same,signal of molecular weight corresponding to N-caprinoyl compound,[4]; substrates D-Cys and sodium caprate,+
same,signal of molecular weight corresponding to N-caprinoyl compound,[4]; substrates D-Glu and sodium caprate,+
same,signal of molecular weight corresponding to N-caprinoyl compound,[4]; substrates D-Ile and sodium caprate,+
same,signal of molecular weight corresponding to N-caprinoyl compound,[4]; substrates D-Lys and sodium caprate,+
same,signal of molecular weight corresponding to N-caprinoyl compound,[4]; substrates L-Asp-L-Phe and sodium caprate,+
same,signal of molecular weight corresponding to N-caprinoyl compound,[4]; substrates L-Gly-L-Gly and sodium caprate,+
same,signal of molecular weight corresponding to N-caprinoyl compound,[4]; substrates Sarcosine and sodium caprate,+
same,signal of molecular weight corresponding to N-caprinoyl compound,[4]; substrates Taurine and sodium caprate,+
